The results in this text go back to publication PMC4192059 (Molecular microbiology, 2014).

The target in this experiment is T1, PPE41 (M. tuberculosis), chain of the crystallized complex (M. tuberculosis, UniProt Q79FE1 1-194).
T1 sequence: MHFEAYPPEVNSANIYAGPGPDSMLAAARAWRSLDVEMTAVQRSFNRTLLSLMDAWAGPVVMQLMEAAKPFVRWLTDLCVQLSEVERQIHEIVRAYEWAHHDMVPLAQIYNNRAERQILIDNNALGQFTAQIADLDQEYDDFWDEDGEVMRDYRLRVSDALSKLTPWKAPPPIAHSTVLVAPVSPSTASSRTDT
Put plainly: crystal structure.

B1: PE25 (M. tuberculosis), chain of the crystallized complex (natural protein)
chain: MSFVITNPEALTVAATEVRRIRDRAIQSDAQVAPMTTAVRPPAADLVSEKAATFLVEYARKYRQTIAAAAVVLEEFAHALTTGADKYATAEADNIKTFS
With B1, the binding result was “binds”.
